# Reference: IntAct's records for PubMed 28497574
# B1: Methylmalonic aciduria type A protein, mitochondrial (Homo sapiens), Q8IVH4 (parent)
# chain: MPMLLPHPHQHFLKGLLRAPFRCYHFIFHSSTHLGSGIPCAQPFNSLGLHCTKWMLLSDGLKRKLCVQTTLKDHTEGLSDKEQRFVDKLYTGLIQGQRACLAEAITLVESTHSRKKELAQVLLQKVLLYHREQEQSNKGKPLAFRVGLSGPPGAGKSTFIEYFGKMLTERGHKLSVLAVDPSSCTSGGSLLGDKTRMTELSRDMNAYIRPSPTRGTLGGVTRTTNEAILLCEGAGYDIILIETVGVGQSEFAVADMVDMFVLLLPPAGGDELQGIKRGIIEMADLVAVTKSDGDLIVPARRIQAEYVSALKLLRKRSQVWKPKVIRISARSGEGISEMWDKMKDFQDLMLASGELTAKRRKQQKVWMWNLIQESVLEHFRTHPTVREQIPLLEQKVLIGALSPGLAADFLLKAFKSRD
# partner: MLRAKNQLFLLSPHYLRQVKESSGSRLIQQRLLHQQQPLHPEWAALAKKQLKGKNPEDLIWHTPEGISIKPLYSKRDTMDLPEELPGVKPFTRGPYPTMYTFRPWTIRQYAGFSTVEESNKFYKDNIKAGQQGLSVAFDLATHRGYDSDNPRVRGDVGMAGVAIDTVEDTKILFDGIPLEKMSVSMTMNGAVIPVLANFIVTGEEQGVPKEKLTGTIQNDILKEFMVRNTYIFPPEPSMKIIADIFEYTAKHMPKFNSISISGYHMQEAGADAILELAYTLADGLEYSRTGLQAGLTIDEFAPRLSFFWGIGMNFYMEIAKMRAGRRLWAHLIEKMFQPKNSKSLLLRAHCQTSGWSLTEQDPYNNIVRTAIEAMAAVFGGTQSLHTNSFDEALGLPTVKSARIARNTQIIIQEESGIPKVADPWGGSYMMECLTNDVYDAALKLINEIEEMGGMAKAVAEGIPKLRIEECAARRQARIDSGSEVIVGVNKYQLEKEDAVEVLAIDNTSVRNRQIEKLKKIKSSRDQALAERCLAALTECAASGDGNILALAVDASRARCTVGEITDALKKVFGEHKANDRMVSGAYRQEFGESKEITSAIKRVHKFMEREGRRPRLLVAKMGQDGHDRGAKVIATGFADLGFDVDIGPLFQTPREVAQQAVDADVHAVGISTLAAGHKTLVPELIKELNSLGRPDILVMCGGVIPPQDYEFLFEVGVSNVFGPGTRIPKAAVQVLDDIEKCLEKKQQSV
# Variants of: B1
# Settings: with muta_human MMUT
row,Variant,effect of a mutation on the interaction
1,MPMLLPHPHQHFLKGLLRAPFRCYHFIFHSSTHLGSGIPCAQPFNSLGLHCTKWMLLSDGLKRKLCVQTTLKDHTEGLSDKEQRFVDKLYTGLIQGQGACLAEAITLVESTHSRKKELAQVLLQKVLLYHREQEQSNKGKPLAFRVGLSGPPGAGKSTFIEYFGKMLTERGHKLSVLAVDPSSCTSGGSLLGDKTRMTELSRDMNAYIRPSPTRGTLGGVTRTTNEAILLCEGAGYDIILIETVGVGQSEFAVADMVDMFVLLLPPAGGDELQGIKRGIIEMADLVAVTKSDGDLIVPARRIQAEYVSALKLLRKRSQVWKPKVIRISARSGEGISEMWDKMKDFQDLMLASGELTAKRRKQQKVWMWNLIQESVLEHFRTHPTVREQIPLLEQKVLIGALSPGLAADFLLKAFKSRD [R98G],disrupting interaction strength
2,MPMLLPHPHQHFLKGLLRAPFRCYHFIFHSSTHLGSGIPCAQPFNSLGLHCTKWMLLSDGLKRKLCVQTTLKDHTEGLSDKEQRFVDKLYTGLIQGQRACLAEAITLVESTHSRKKELAQVLLQKVLLYHREQEQSNKGKPLAFRVGLSGPPGAGKSTFIEYFGKMLTERGHKLSVLAVDPSSCTSGGSLLGDKTRMTELSRDMNAYIRPSPTRGTLEGVTRTTNEAILLCEGAGYDIILIETVGVGQSEFAVADMVDMFVLLLPPAGGDELQGIKRGIIEMADLVAVTKSDGDLIVPARRIQAEYVSALKLLRKRSQVWKPKVIRISARSGEGISEMWDKMKDFQDLMLASGELTAKRRKQQKVWMWNLIQESVLEHFRTHPTVREQIPLLEQKVLIGALSPGLAADFLLKAFKSRD [G218E],disrupting interaction strength
3,MPMLLPHPHQHFLKGLLRAPFRCYHFIFHSSTHLGSGIPCAQPFNSLGLHCTKWMLLSDGLKRKLCVQTTLKDHTEGLSDKEQRFVDKLYTGLIQGQRACLAEAITLVESTHSRKKELAQVLLQKVLLYHREQEQSNKGKPLAFRVGLSGPPGAGKSTFIEYFGKMLTERGHKLSVLAVDPSSCTSGGSLLGDKTQMTELSRDMNAYIRPSPTRGTLGGVTRTTNEAILLCEGAGYDIILIETVGVGQSEFAVADMVDMFVLLLPPAGGDELQGIKRGIIEMADLVAVTKSDGDLIVPARRIQAEYVSALKLLRKRSQVWKPKVIRISARSGEGISEMWDKMKDFQDLMLASGELTAKRRKQQKVWMWNLIQESVLEHFRTHPTVREQIPLLEQKVLIGALSPGLAADFLLKAFKSRD [R196Q],with no effect
4,MPMLLPHPHQHFLKGLLRAPFRCYHFIFHSSTHLGSGIPCAQPFNSLGLHCTKWMLLSDGLKRKLCVQTTLKDHTEGLSDKEQRFVDKLYTGLIQGQRACLAEAITLVESTHSRKKELAQVLLQKVLLYHREQEQSNKGKPLAFRVGLSGPPGAGKSTFIEYFGKMLTERGHKLSVLAVDPSSCTSGGSLLGDKTRMTELSRDMNAYIRPSPTRGTLGGVTRTTNEAILLCEGAGYDIILIETVGVGQSEFAVADMVDMFVLLLPPAGGDELQGIKRGIIEMADLVAVTKSDGDLIVPARRIQAEYVSALKLLRKRSQVWKPKVIRISARSGEGISEMWDKMKDFQDLMLASGELTAKGRKQQKVWMWNLIQESVLEHFRTHPTVREQIPLLEQKVLIGALSPGLAADFLLKAFKSRD [R359G],decreasing interaction strength
5,MPMLLPHPHQHFLKGLLRAPFRCYHFIFHSSTHLGSGIPCAQPFNSLGLHCTKWMLLSDGLKRKLCVQTTLKDHTEGLSDKEQRFVDKLYTGLIQGQRACLAEAITLVESTHSRKKELAQVLLQKVLLYHREQEQSNKGKPLAFRVGLSGPPGAGKSTFIEYFGKMLTERGHKLSVLAVDPSSCTSGGSLLGDKTRMTELSRDMNACIRPSPTRGTLGGVTRTTNEAILLCEGAGYDIILIETVGVGQSEFAVADMVDMFVLLLPPAGGDELQGIKRGIIEMADLVAVTKSDGDLIVPARRIQAEYVSALKLLRKRSQVWKPKVIRISARSGEGISEMWDKMKDFQDLMLASGELTAKRRKQQKVWMWNLIQESVLEHFRTHPTVREQIPLLEQKVLIGALSPGLAADFLLKAFKSRD [Y207C],disrupting interaction strength
6,MPMLLPHPHQHFLKGLLRAPFRCYHFIFHSSTHLGSGIPCAQPFNSLGLHCTKWMLLSDGLKRKLCVQTTLKDHTEGLSDKEQRFVDKLYTGLIQGQRACLAEAITLVESTHSRKKELAQVLLQKVLLYHREQEQSNKGKPLAFRVGLSGPPGAGKSTFIEYFGKMLTERGHKLSVLAVDPSSCTSGGSLLGDKTRMTELSRDMNAYIRPSPTRGTLGGVTRTTNEAILLCEGAGYDIILIETVGVGQSEFAVADMVDMFVLLLPPAGGDELQGIERGIIEMADLVAVTKSDGDLIVPARRIQAEYVSALKLLRKRSQVWKPKVIRISARSGEGISEMWDKMKDFQDLMLASGELTAKRRKQQKVWMWNLIQESVLEHFRTHPTVREQIPLLEQKVLIGALSPGLAADFLLKAFKSRD [K276E],decreasing interaction strength

# Variants of: B1
# Settings: with muta_human MMUT
# Remark: another data set of the same source
row,Variant,effect of a mutation on the interaction
1,MPMLLPHPHQHFLKGLLRAPFRCYHFIFHSSTHLGSGIPCAQPFNSLGLHCTKWMLLSDGLKRKLCVQTTLKDHTEGLSDKEQRFVDKLYTGLIQGQRACLAEAITLVESTHSRKKELAQVLLQKVLLYHREQEQSNKGKPLAFRVGLSGPPGAGKSTFIEYFGKMLTERGHKLSVLAVDPSSCTSGGSLLGDKTRMTELSRDMNAYIRPSPTRGTLGGVTRTTNEAILLCEGAGYDIILIENVGVGQSEFAVADMVDMFVLLLPPAGGDELQGIKRGIIEMADLVAVTKSDGDLIVPARRIQAEYVSALKLLRKRSQVWKPKVIRISARSGEGISEMWDKMKDFQDLMLASGELTAKRRKQQKVWMWNLIQESVLEHFRTHPTVREQIPLLEQKVLIGALSPGLAADFLLKAFKSRD [T243N],disrupting interaction strength
